Data from patent US20210388087A1 (Chugai, published 2021).
Positions count from the first letter of the chain named.

B1: GLS3000 N53R (antibody, name in Kabat numbering, V domains shown)
VH: QVQLVESGGGVVQPGRSLRLSCAASGFTFSNAWMHWVRQAPGKGLEWVAQIKAKSNNYATYYAESVKGRFTISRDDSKNSLYLQMNSLKTEDTAVYYCRYVHYGAYYGVDAWGQGTTVTVSS
VL: DIVMTQSPLSLPVTPGEPASISCRSSQSLVHSNRNTYLHWYQQKPGQAPRLLIYKVSRRFSGVPDRFSGSGSGTDFTLKISRVEAEDVGVYYCGQGTQVPYTFGQGTKLEIK
notes: one-arm IgG as m2
B2: GLS3000 P95G (antibody, name in Kabat numbering, V domains shown)
VH: B1 VH
VL: B1 VL with R58N, P100G
notes: one-arm IgG as m2
B3: GLS3000 Q90Y (antibody, name in Kabat numbering, V domains shown)
VH: B1 VH
VL: B1 VL with R58N, Q95Y
notes: one-arm IgG as m2
B4: GLS3000 R24T (antibody, name in Kabat numbering, V domains shown)
VH: B1 VH
VL: B1 VL with R24T, R58N
notes: one-arm IgG as m2
B5: GLS3000 R24Y (antibody, name in Kabat numbering, V domains shown)
VH: B1 VH
VL: B1 VL with R24Y, R58N
notes: one-arm IgG as m2
B6: GLS3000 Q93P (antibody, name in Kabat numbering, V domains shown)
VH: B1 VH
VL: B1 VL with R58N, Q98P
notes: one-arm IgG as m2
B7: GLS3000 N53T (antibody, name in Kabat numbering, V domains shown)
VH: B1 VH
VL: B1 VL with R58T
notes: one-arm IgG as m2
B8: GLS3000 P95E (antibody, name in Kabat numbering, V domains shown)
VH: B1 VH
VL: B1 VL with R58N, P100E
notes: one-arm IgG as m2
B9: GLS3000 R24Q (antibody, name in Kabat numbering, V domains shown)
VH: B1 VH
VL: B1 VL with R24Q, R58N
notes: one-arm IgG as m2
B10: GLS3000 R29L (antibody, name in Kabat numbering, V domains shown)
VH: B1 VH
VL: B1 VL with R34L, R58N
notes: one-arm IgG as m2
B11: GLS3000 Q90P (antibody, name in Kabat numbering, V domains shown)
VH: B1 VH
VL: B1 VL with R58N, Q95P
notes: one-arm IgG as m2
B12: GLS3000 Q27E (antibody, name in Kabat numbering, V domains shown)
VH: B1 VH
VL: B1 VL with Q27E, R58N
notes: one-arm IgG as m2
B13: GLS3000 Q27L (antibody, name in Kabat numbering, V domains shown)
VH: B1 VH
VL: B1 VL with Q27L, R58N
notes: one-arm IgG as m2
B14: GLS3000 Q90A (antibody, name in Kabat numbering, V domains shown)
VH: B1 VH
VL: B1 VL with R58N, Q95A
notes: one-arm IgG as m2
B15: GLS3000 Q93D (antibody, name in Kabat numbering, V domains shown)
VH: B1 VH
VL: B1 VL with R58N, Q98D
notes: one-arm IgG as m2
B16: GLS3000 R24S (antibody, name in Kabat numbering, V domains shown)
VH: B1 VH
VL: B1 VL with R24S, R58N
notes: one-arm IgG as m2
B17: GLS3000 Q93R (antibody, name in Kabat numbering, V domains shown)
VH: B1 VH
VL: B1 VL with R58N, Q98R
notes: one-arm IgG as m2
B18: GLS3000 R24A (antibody, name in Kabat numbering, V domains shown)
VH: B1 VH
VL: B1 VL with R24A, R58N
notes: one-arm IgG as m2
B19: GLS3000 Q90D (antibody, name in Kabat numbering, V domains shown)
VH: B1 VH
VL: B1 VL with R58N, Q95D
notes: one-arm IgG as m2
B20: GLS3000 Q27P (antibody, name in Kabat numbering, V domains shown)
VH: B1 VH
VL: B1 VL with Q27P, R58N
notes: one-arm IgG as m2
B21: GLS3000 N53Y (antibody, name in Kabat numbering, V domains shown)
VH: B1 VH
VL: B1 VL with R58Y
notes: one-arm IgG as m2
B22: GLS3000 N53S (antibody, name in Kabat numbering, V domains shown)
VH: B1 VH
VL: B1 VL with R58S
notes: one-arm IgG as m2
B23: GLS3000 N53V (antibody, name in Kabat numbering, V domains shown)
VH: B1 VH
VL: B1 VL with R58V
notes: one-arm IgG as m2
B24: GLS3000 Q27R (antibody, name in Kabat numbering, V domains shown)
VH: B1 VH
VL: B1 VL with Q27R, R58N
notes: one-arm IgG as m2
B25: GLS3000 N53W (antibody, name in Kabat numbering, V domains shown)
VH: B1 VH
VL: B1 VL with R58W
notes: one-arm IgG as m2
B26: GLS3000 R29D (antibody, name in Kabat numbering, V domains shown)
VH: B1 VH
VL: B1 VL with R34D, R58N
notes: one-arm IgG as m2
B27: GLS3000 P95D (antibody, name in Kabat numbering, V domains shown)
VH: B1 VH
VL: B1 VL with R58N, P100D
notes: one-arm IgG as m2
B28: GLS3000 R29S (antibody, name in Kabat numbering, V domains shown)
VH: B1 VH
VL: B1 VL with R34S, R58N
notes: one-arm IgG as m2
B29: GLS3000 P95L (antibody, name in Kabat numbering, V domains shown)
VH: B1 VH
VL: B1 VL with R58N, P100L
notes: one-arm IgG as m2
B30: GLS3000 R29I (antibody, name in Kabat numbering, V domains shown)
VH: B1 VH
VL: B1 VL with R34I, R58N
notes: one-arm IgG as m2
B31: GLS3000 Q93Y (antibody, name in Kabat numbering, V domains shown)
VH: B1 VH
VL: B1 VL with R58N, Q98Y
notes: one-arm IgG as m2
B32: GLS3000 P95S (antibody, name in Kabat numbering, V domains shown)
VH: B1 VH
VL: B1 VL with R58N, P100S
notes: one-arm IgG as m2
B33: GLS3000 R24E (antibody, name in Kabat numbering, V domains shown)
VH: B1 VH
VL: B1 VL with R24E, R58N
notes: one-arm IgG as m2
B34: GLS3000 R24G (antibody, name in Kabat numbering, V domains shown)
VH: B1 VH
VL: B1 VL with R24G, R58N
notes: one-arm IgG as m2
B35: GLS3000 R29P (antibody, name in Kabat numbering, V domains shown)
VH: B1 VH
VL: B1 VL with R34P, R58N
notes: one-arm IgG as m2
B36: GLS3000 R24D (antibody, name in Kabat numbering, V domains shown)
VH: B1 VH
VL: B1 VL with R24D, R58N
notes: one-arm IgG as m2
B37: GLS3000 R29G (antibody, name in Kabat numbering, V domains shown)
VH: B1 VH
VL: B1 VL with R34G, R58N
notes: one-arm IgG as m2
B38: GLS3000 P95A (antibody, name in Kabat numbering, V domains shown)
VH: B1 VH
VL: B1 VL with R58N, P100A
notes: one-arm IgG as m2
B39: GLS3000 Q93E (antibody, name in Kabat numbering, V domains shown)
VH: B1 VH
VL: B1 VL with R58N, Q98E
notes: one-arm IgG as m2
B40: GLS3000 R29A (antibody, name in Kabat numbering, V domains shown)
VH: B1 VH
VL: B1 VL with R34A, R58N
notes: one-arm IgG as m2
B41: GLS3000 Q27D (antibody, name in Kabat numbering, V domains shown)
VH: B1 VH
VL: B1 VL with Q27D, R58N
notes: one-arm IgG as m2
B42: GLS3000 Q93A (antibody, name in Kabat numbering, V domains shown)
VH: B1 VH
VL: B1 VL with R58N, Q98A
notes: one-arm IgG as m2
B43: GLS3000 Q93S (antibody, name in Kabat numbering, V domains shown)
VH: B1 VH
VL: B1 VL with R58N, Q98S
notes: one-arm IgG as m2
B44: GLS3000 R24P (antibody, name in Kabat numbering, V domains shown)
VH: B1 VH
VL: B1 VL with R24P, R58N
notes: one-arm IgG as m2
B45: GLS3000 Q90S (antibody, name in Kabat numbering, V domains shown)
VH: B1 VH
VL: B1 VL with R58N, Q95S
notes: one-arm IgG as m2
B46: GLS3000 Q90E (antibody, name in Kabat numbering, V domains shown)
VH: B1 VH
VL: B1 VL with R58N, Q95E
notes: one-arm IgG as m2

molecular target: T1, CD3 epsilon homodimer protein (UniProt P07766 23-126); experiment: SPR Biacore T200, CD3e homodimer on chip, vs unaltered GLS3000 antibody
T1 construct: also called CD3 (CD3 epsilon)
T1 sequence (P07766 23-126): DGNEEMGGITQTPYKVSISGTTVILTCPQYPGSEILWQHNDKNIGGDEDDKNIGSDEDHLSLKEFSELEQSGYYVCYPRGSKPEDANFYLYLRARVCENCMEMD
Experimental: An appropriate amount of CD3 epsilon homodimer protein was immobilized onto Sensor chip CM4 (GE Healthcare Japan Corp.) by the amine coupling method. Then, the antibody having an appropriate concentration was injected thereto as an analyte and allowed to interact with the CD3 epsilon homodimer protein on the sensor chip. Then, the sensor chip was regenerated by the injection of 10 mmol/L glycine-HCl (pH 1.5). The assay was conducted at 25 degrees C., and HBS-EP+(GE Healthcare Japan Corp.) was used as a running buffer. […] Each parameter was calculated using Biacore T200 Evaluation Software (GE Healthcare Japan Corp.).

Binder	ratio of amounts bound (Z=Y/X)
B1	1.58
B2	0.37
B3	0.17
B4	0.88
B5	0.87
B6	0.25
B7	0.56
B8	0.39
B9	0.9
B10	0.56
B11	0.27
B12	0.88
B13	0.92
B14	0.5
B15	0.72
B16	0.89
B17	1.13
B18	0.86
B19	0.19
B20	0.29
B21	0.67
B22	0.69
B23	0.56

Binder	ratio of amounts bound (Z=Y/X)
B24	1.19
B25	0.81
B26	0.41
B27	0.24
B28	0.68
B29	0.24
B30	0.37
B31	0.87
B32	0.43
B33	0.83
B34	0.89
B35	0.31
B36	0.75
B37	0.67
B38	0.63
B39	0.75
B40	0.63
B41	0.85
B42	0.85
B43	0.96
B44	0.7
B45	0.73
B46	0.86
